According to patent US20200255836:
pKd: −log10 of the molar value.

Molecular target: Cas9 (His-Cas9) (Streptococcus pyogenes) (UniProt Q99ZW2)
Assay: SPR
Conditions: Cas9 without guide; 20 mM Tris pH 8.0, 150 mM NaCl, 1 mM MgCl2

Chain of Cas9 (His-Cas9) (Streptococcus pyogenes) (Q99ZW2 whole entry): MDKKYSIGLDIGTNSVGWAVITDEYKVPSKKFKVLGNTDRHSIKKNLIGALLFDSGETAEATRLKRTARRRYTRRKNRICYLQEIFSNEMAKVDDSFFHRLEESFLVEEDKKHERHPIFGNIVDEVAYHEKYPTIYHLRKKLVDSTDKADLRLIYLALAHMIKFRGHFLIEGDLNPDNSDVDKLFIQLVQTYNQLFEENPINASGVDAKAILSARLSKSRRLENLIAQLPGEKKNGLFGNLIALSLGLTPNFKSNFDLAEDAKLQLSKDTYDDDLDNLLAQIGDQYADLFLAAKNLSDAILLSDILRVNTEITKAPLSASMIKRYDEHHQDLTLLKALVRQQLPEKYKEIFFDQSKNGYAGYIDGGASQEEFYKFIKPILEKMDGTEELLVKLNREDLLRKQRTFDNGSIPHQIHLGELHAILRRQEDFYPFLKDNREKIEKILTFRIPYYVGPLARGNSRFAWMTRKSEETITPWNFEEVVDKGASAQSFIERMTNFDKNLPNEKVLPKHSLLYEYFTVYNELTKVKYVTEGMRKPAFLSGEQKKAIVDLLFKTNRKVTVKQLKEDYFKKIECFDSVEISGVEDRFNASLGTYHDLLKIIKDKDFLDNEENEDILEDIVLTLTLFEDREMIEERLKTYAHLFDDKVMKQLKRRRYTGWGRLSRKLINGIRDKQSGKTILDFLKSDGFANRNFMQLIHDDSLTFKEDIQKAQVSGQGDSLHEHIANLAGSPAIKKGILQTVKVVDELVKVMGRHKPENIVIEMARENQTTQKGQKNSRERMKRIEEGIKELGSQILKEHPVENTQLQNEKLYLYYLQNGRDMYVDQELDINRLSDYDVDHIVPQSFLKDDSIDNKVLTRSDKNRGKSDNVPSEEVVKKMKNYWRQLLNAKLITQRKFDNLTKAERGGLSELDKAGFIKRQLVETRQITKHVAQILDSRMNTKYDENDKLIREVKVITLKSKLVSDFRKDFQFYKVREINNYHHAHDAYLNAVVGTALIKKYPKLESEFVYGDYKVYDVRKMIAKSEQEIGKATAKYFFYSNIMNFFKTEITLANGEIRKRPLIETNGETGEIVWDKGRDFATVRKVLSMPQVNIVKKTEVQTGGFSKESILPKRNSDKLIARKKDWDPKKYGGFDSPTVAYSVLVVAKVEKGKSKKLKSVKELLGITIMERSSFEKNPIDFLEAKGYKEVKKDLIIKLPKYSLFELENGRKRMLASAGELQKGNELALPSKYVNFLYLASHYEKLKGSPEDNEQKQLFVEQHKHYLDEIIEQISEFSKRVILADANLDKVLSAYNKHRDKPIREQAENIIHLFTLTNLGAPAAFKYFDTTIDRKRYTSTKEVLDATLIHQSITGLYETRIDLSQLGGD

With “GAGGCTCTCACATCGGTAACGGTGTGAGAGCCTC [Tetra]” the pKd was 5.06.
